From US20240240160A1, “NOVEL OLIVETOL SYNTHASES FOR C[…]” (priority 2021, published 2024) come the findings set out here.

The assay deals with E. coli derivative strain which overexpressed an acyl-CoA synthetase (fadD) gene and expressed an olivetolic acid cyclase (OAC) from Cannabis sativa. Briefly: OL, OLA and PDAL production in E. coli from plasmid-expressed Type-III PKS genes. In kind it is cell-based. The conditions noted are these: gene on plasmid; for Total: OL + OLA + PDAL; for OL / OLA / PDAL: constitutive promoter, culture spiked with 4 mM hexanoic acid. The procedure:
To test olivetolic acid production in E. coli, strains comprising a putative OLS gene and an OAC gene from C. sativa were inoculated in multi-well plates containing LB supplemented with 1% glucose and appropriate concentrations of antibiotics. After 6 hours of cultivation at 32° C., the cells were transferred with a 10% inoculum to a P-limited seed medium (see Table 2) and cultivated for ˜18 hours at 32° ° C. to reach an OD of 2.0-4.0. The cultures were transferred with a 20% inoculum in a P-minimal medium (see Table 3) supplemented with 2% glucose and appropriate concentrations of antibiotics. After 3 hours of cultivation at 32° C., the culture was spiked with 4 mM hexanoic acid (˜OD 1.5-2.0). The resulting cultures were then harvested at either 3 hours or 21 hours post hexanoic acid spike; a final OD was taken. 300 μL of butyl acetate containing 500 mg/L undecanoic acid was added to each multi-well plate. The plates were then vortexed for 30 minutes at 1500 rpm and centrifuged for 10 minutes at 4500 rpm. 50 μL of organic layer was transferred to a 96-well plate and derivatized with 50 μL of N,O-Bis(trimethylsilyl)trifluoroacetamide (BSTFA). The plate was then incubated at room temperature for 2 hours to allow for complete derivatization. The samples were then run on GC-FID for analytical quantification of olivetolic acid (OLA), olivetol (OL), PDAL, and hexanoic acid.
Olivetol, PDAL, OLA, HTAL, CBGA and combinations thereof were analyzed by LCMS or LCMS/MS methods using C18 reversed phase chromatography coupled to either EXACTIVE™ (ThermoFisher) or QTRAP® 4500 (Sciex) mass spectrometers.
For reversed phase LCMS, compounds were identified by their LC retention times and MRM transitions specific to the compounds. LCMS/MS analysis was conducted on a Shimadzu UHPLC system coupled with AB Sciex QTRAP 4500 mass spectrometer. Agilent Eclipse XDB C18 column (4.6×3.0 mm, 1.8 μm) was used with a 1-min gradient elution at 1 mL/min using water containing 0.1% ammonia acetate as mobile phase A and 90% methanol containing 0.1% ammonia acetate as mobile phase B. The LC column temperature was maintained at 45° C. Negative ionization mode was used for all the analytes.
The genes for 20 Type-III PKS enzymes were codon optimized for E. coli and cloned under control of a constitutive promoter into an expression vector (p15a replicon, carbenicillin resistance marker). The 20 plasmids were transformed into an E. coli derivative strain which overexpressed an acyl-CoA synthetase (fadD) gene and expressed an olivetolic acid cyclase (OAC) from Cannabis sativa.
The in vivo assay procedure and analytical methods were performed as described above.

B1: AHH25569.1: Type-III PKS enzyme from Bletilla striata (protein, listed as Bletilla striata)
chain: MPSLDSIKKAPRADGIASILAIGRANPDNIIEQSAYPDFYFRVTNSEHLVDLKKKFQRICEKTAIRKRHFVWNEEFLTSNPSFSTFMDKSLYVRQEVAIREIPKLGAKAATKAIEDWGQPKSRISHLIFCTTSGMDLPGADYQLTQILGLNPNVERLMLYEQGCFAGGTTLRLAKCLAESRKGARVLVVCAETTTVLFRAPSEEHQDDLVTQALFADGASALIVGADPDEAADERASFVIVSTSQVLLPDTAGAIGGHVSEGGLLATLHRDVPQIVTKNVGKCLEEAFTPFGISDWNSIFWVPHPGGRAILDQVEERVGLKPEKLSVSRHVLAEYGNMSSVCVHFALDEMRKRSANEGKPTTGEGLEWGVLFGFGPGLTVETVVLRSVPL
modifications: (1)..(390) AHH25569.1
In the case of B1, the Total came out at 320 µM, the OL was determined as 93 µM, the OLA worked out at 98 µM and the PDAL was 129 µM.

B2: AAX54693.1: Type-III PKS enzyme from Phalaenopsis hybrid cultivar (protein)
chain: MPTIESIKKAPRAHGFASILAIGKANPENFIEQCHYPDFYFRVTSSEHLVDLKEKFQRMCDRTAIRKRHFVWNEDLLTANPCLRTYMDKSLNIRQEVAIREIPKLGAEAATKAIQEWGQPKSSITHLIFCTTSGMDLPGADFQLTQILGLNPNVERVMLYQQGCFAGGTTLRLAKCLAESREGARVLVVCAETTTVVFRAPSEEHQDDLVTQALFADGASAVIVGVDPNEAAHERASFIIVSASQVLLPDSAGAIGGHVSEGGLTATLHRDVPQIVSKNVGKCLEEAFTPFGISDWNSIFWVPHAGGRAILDQVEERVGLKPEKLSVSRHVLAEYGNMSSVCVHFALDEMRKKSAKEAKATTGEGLEWGVLFGFGPGLTVETVVLHSVPI
modifications: Phalaenopsis hybrid cultivar; (1)..(390) AAX54693.1
In the case of B2, the Total was 1874 µM, the “levels of OLA relative to the E. coli strain with OLS from C. sativa” value is given as “over two-fold”, the OL is 606 µM and the OLA was 653 µM. The PDAL stood at 615 µM.

B3: AFU07719.1: Type-III PKS enzyme from Paphiopedilum purpuratum (protein, listed as Paphiopedilum purpuratum)
chain: MPGLENRKKVEAPKRAEGLATILAIGRANPPNDMEQSTFPDFYFRVTNSEHLVSLKKKFERICEKTAIRRRHFVWNEEILNANPCLRTHMEPSLNVRQKIAVAEIPKLGAEAASRAIEEWGQPKSHITHLIFCTTSGMDLPGADYKLTRILGLNPNVQRVMLYQQGCFAGGTVLRLAKCFAESQKGARVLVVCSETTTVLVRAPSEDYQDDLVTQALFADGASALIVGADPDEEAKEQPIFTIVSATQVILPDSDGAIGGHLGEGGLTATLHRDVPLIISKNVSKCLEEAFGPLGISDWNSIFWAPHPGGRAILDQVEERVGLKPEKLWASRHVLAEYGNMSSVCVHFVLDEIRKRSTKEGKTTTGEGFDWGVLFGFGPGLTVETVILRSVPLN
modifications: (1)..(394) AFU07719.1
Consider B3, for which the Total is 1406 µM, the OL came to 289 µM, the OLA was 302 µM and the PDAL worked out at 815 µM.

B4: XP_020591420.1: Type-III PKS enzyme from Phalaenopsis equestris (protein, listed as Phalaenopsis equestris)
chain: MPNMESIKKEDGLATIMAIGRALPPNSIDQNSFPDFYFRVHNSEHLMDLKNKFRRICERTAIRKRHFVWNEEVLKQNPCLRTFMEPSLNTRQEIVCSEIPKLGAEAARNAIREWGQPERSITHLIFCTTSGMNLPGADFEAAQILGLNHSVERVMLYQQGCFAGGTVLRLAKCLAESRRGARVLVICAESTTSLVRSPSREHQYDLIAQALFADGASALIIGTEPNAEAGERPIFSIFSTAQVTLPDSGDAIRGYLKEGGLIATLAKDVPLIISENIERCLQEAFGPLGISDWNSIFWAPHPGGRAILDGIEDKLGLKPEKLWAARHVLAEYGNMSSVCVHYILDEMRRRDVKNGKAPTGDGPEWGVLFGFGPGLTVETVVLRRLFL
modifications: (1)..(387) XP_020591420.1
Regarding B4, the Total was found to be 468 µM, the OL was 54 µM, the OLA was 36 µM and the PDAL turned out to be 378 µM.

B5: XP_020704102.1: Type-III PKS enzyme from Dendrobium catenatum (protein, listed as Dendrobium catenatum)
chain: MPSLESIKKAPRADGFASILAIGRANPENFIEQSAYPDLFFRITKSEHLVDLKNKFKRICDKTAIRKRHFVWTEEFITANPCFSTFMEKSLNIRQEVAIREIPKLGAEAAAKAIQEWGQPKSRITHLIFCTRSGMGLPGPDYQLTQILGLNPNVERVMIYQQGCFAGGTTLRLAKCLAESHKGARVLVVCAETSTVLFRAPSMEHQEDLVTQALFADGASALIVGADPDETADEHASFVIVSTSQVLLPESAGAIGGHVSEGGFLPMIHRDVPQIVSKNIGKCLEEAFTPLGIMDWNSIFWVPHPGGRAILDQLDERVGLKPEKLFISRHVLKEYGNMSSASVHFALDEMRKWSAKEGTTGEGLEWGVLFGFGPGVTVDTVVLRSVPI
modifications: (1)..(388) XP_020704102.1
Turning to B5, the Total stood at 148 µM, the OL came out at 26 µM, the OLA is 19 µM and the PDAL worked out at 102 µM.

B6: XP_020704098.1: Type-III PKS enzyme from Dendrobium catenatum (protein, listed as Dendrobium catenatum)
chain: MPSLESIKKAPRADGFASILAIGRANPENFIEQSAYPDLFFRITNSEHLVDLKNKFKRICDKTAIRKRHFVWTEEFITANPCFSTFMDKSLNIRQEVAIREIPKLGAEAATKAIQEWGQPKSRITHLIFCTTSGMDLPGADYQLTQILGLNPNVERVMLYQQGCFAGGTTIRLAKCLAESRKGARVLVVCAETTTVLFRGPSEEHQDDLVTQALFADGASALIVGADPDEAADEHASFVIVSTSQVLLPDSAGAIGGHVSEGGLLATLHRDVPQIVSKNVGKCLEEAFTPLGISDWNSIFWVPHPGGRAILDQVEESVGLKPEKLFISRHVLAEYGNMSSVCVHFALDEMRKRSAKEGKATTGEGLEWGVLFGFGPGVTVETVILRSVPI
modifications: (1)..(390) XP_020704098.1
Take B6: the Total amounted to 1072 µM, the OL was 432 µM, the OLA stood at 390 µM and the PDAL amounted to 250 µM.

B7: AFU07718.1: Type-III PKS enzyme from Paphiopedilum micranthum (protein, listed as Paphiopedilum micranthum)
chain: MPGLENRKKVEAPIRAEGLATIMAIGRANPPNAMEQSTFPDFYFRVTNSEHLVGLKKKFQRICEKTAIRRRHFVWNEEILNANPCLRTHMEPSLNVRQKIAVAEIPKMGAEAASRAIEEWGQSKSRITHLIFCTTSGMDLPGADYQLTRILGLNPNVQRVMLYQQGCFAGGTVLRLAKCLAESQKGARVLVVCSETTAVLVRAPSEEYHDDLVTQALFADGASALIVGADPDEEAKERPIFTIVSTTQVILPDSDGAIGGHLGEGGLTATLHRDVPLIISKNVSKCLEEAFTPLGISDWNSIFWAPHPGGRAILDQVEERASLKPEKLWASRHVLTEYGNMSSVCVHFVLDEIRKRSAKEGKATTGEGFDWGVLFGFGPGLTVETVVLRSVPLN
modifications: (1)..(394) AFU07718.1
Turning to B7, the Total was found to be 948 µM, the OL was determined as 159 µM, the OLA was 152 µM and the PDAL is 638 µM.

B8: PKA53998.1: Type-III PKS enzyme from Apostasia shenzhenica (protein, listed as Apostasia shenzhenica)
chain: MPGLQIISKASSRAADGLAAILAIGRANPPNSMDQSSYPEFYFRVMDSDHLVDLKKKFQRICERTAIRKRHFVWNEELLRDNPCLRTFMDSSLNVRQKVAVAEIPKLGAAAAERAIEEWGQPRSGITHLIFCTTSGMDLPGADYQLTKILGLNADVQRVMLYQQGCFAGGTVLRLAKVLAESRKGARVLVVCAETTTVLIRAPSVEHQDDLVTQALFADGASALIVGADPVEEVNERPLFSIISASQVILPDSDGAIGGHLGEGGLTATLHRDVPLIISKNVSKCLEDAFSPLGISDWNSIFWAPHPGGRAILDQVEERVGLKPEKMWASRHVLAEYGNMSSVCVHFVLDEMRKRSAKEGKPTTGEGLEWGVLFGFGPGLTVETVVLRSHPIN
modifications: (1)..(393) PKA53998.1
With B8, the Total stood at 1005 µM, the OL stood at 268 µM, the OLA was 256 µM and the PDAL turned out to be 481 µM.
